The nanobody polyreactivity screen of Harvey et al. (2022)

Assay: yeast display, Sf9 membrane polyspecificity reagent, FACS + sequencing; frameworks hold sequencing errors
Method in brief: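 Polyreactivity labels are assigned by the sorting gate from which each nanobody was recovered. The gates were low and high (top ~1%), set on anti-HA fluorescence for expression and streptavidin fluorescence for reagent binding. Before sorting, galactose-induced (36–48 hours) yeast display cells were stained for 1 hour at 4 °C with 10% biotinylated, detergent-solubilized Sf9 membrane reagent.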

Row | Sequence | polyreactivity (PSR sort gate)
1 | QVQLVESGGGLVQAGGSLRLSCAASGRTFSYYAMGWYRQAPGKERELVAAISWRGGSTYYADSVKGRFTISRDNAKNTVYLQMNSLKPEDTAVYYCAALPRYALGEDYWGQGTQVTVSS | high polyreactivity
2 | QVQLVESGGGLVQAGVSLRLSCASSGYTYHVYAMGWYRQAPGKERELVAAISTGDDTTFYADSVKVRFTISRDNAKNTVYLQMNSLKPEDTAVYYCAAAYGTPYGGYDYWGQGTQVTVSS | low polyreactivity
3 | QVQLVESGGGLDQAGGSLRLSCAASGIIFSQYAMGWYRQAPGKERELVAGITRSGGSTYYADSVKGRFTISRDNAKNTVYLQMNSLKPEDTAVYYCAAVQRYEYGYWGQGTQVTVSS | high polyreactivity
4 | QVQLVESGGGLVQAGGSLRLSCAASGSTFYPNAMGWYRQAPGKERELVAAISWSGGRTYYADSVKGRFTISRDNAKNTVYLQMNSLKPEDTAVYYCNAARYPSSWYYKLDYWGQGTQVTVSS | high polyreactivity
5 | QVQLVESGGGLVQAGGSLRLSCAASGNISYTYVMGWSRQAPGKHRELVAAITWSTGSTYYADSVKGRFTISRDNAKNTVYLQMNSLKPEDTAVYYCAVDGGEFSSYGYWGQGTQVTVSS | low polyreactivity
6 | QVQLVESGGGLVQAGGSLRLSCAASGLFFYAYSMGWYRQAPAKERELVAAISGSGGNTYYADSVKGRFTISRDNAKNSVYLQMNSLKQEDTAVYYCAADYTAAYPDSMYYWGQGTQVTVSS | low polyreactivity
7 | QVQLVESGGGLVQAGGSLRLSCAASGSICVDNAMGWYRQAPGKERELVAVITLRSGSTNYADSVKGRFTISRDNAKNTVYLQMNSLKPEDTAVYYCAADDTYHDYQRDTDDDYWGQGTQVTVSS | low polyreactivity
8 | QVQLVESGGGLVQAGGSLRLSCAASGSIFGTYAMGWYRQAPGKERELVATISYGDGSTYYADSVKGRFTISRDNAKNTVYLQMNSLKPEDTAVYYCNTGVYSSGGPLDYWGQGTQVTVSS | low polyreactivity
9 | QVQLVESGGGLVQAGGSLRLSCAASGRTFVRYTMGWYRQAPGKERELVAAISGSGSSTFYADSVKGRFTISRDNAKNTVYLQMNSLKPVDTAVYYCAARVRRVARDPYDYWGQGTQVTVSS | high polyreactivity
10 | QVQLVESGGGLVQAGGSLRLSCAATGRIFTINAMGWYRQAPGKERELVAGITKSGGITYYADSVKGRFTISRDNAKNTVYLQMNSLKPEDTAVYYCAAPFNRWRARTGFDYWGQGTQVTVSS | high polyreactivity
11 | QVQLVESGGGLVQAGGSLRLSCAASGGTFRNNAMGWYIQAPGKERELVAAISSSGTSTYYADSVKGRFTISRDNAKNTVYLQMNSLKPEDTAVYYCNADALGSPWWDHMDYWGQGTQVTVSS | low polyreactivity
12 | QVQLVESGGGLVQAGGSLRLSCAASGFIFRWYAMGWYRQAPGKERELVASITRGGSTNYADSVKGRFTISRDNAKNTVYLQMNSLKPEDTAVYYCAAGWRRAAGIQYWYGYWGQGTQVTVSS | high polyreactivity
13 | HSAVGLVQAGVRHPLSCAASGRMFKYNAMRWYRQAPGKERELVAAISYSGGSTYYADSVKGRFTISRDNEMYTVYLQMNSLKPEDTAVYYCAKATSTREPKYGYWGQGTHVTVSS | high polyreactivity
14 | QVQLVESGGGLVQAGGSLRLSCADSGRTFRIYAMGWYRQAPGKERELVARITKRAGSTYYADSVKGRFTISRDNAKNTVYLQMNSLKPEDTAVYYCAATHYQWRGRYGYWRQGTQVTVSS | high polyreactivity
15 | QVQLGESGGGLVQAGGSLRLSCAASGITFTKYVMGWYRQAPGKERELVATIRWGASSTHYADSVKGRFTISRDNAKNTVYLQMNSLKPEDTAVYYCNADGWYGAVYWWFYGFDYWGQGTQVTVSS | low polyreactivity
16 | QVQLVESGAGLVQAGGSLRISCAASGFTFQKNAMGWYRQSPGKERELVAAISSSGGSTYYADSVKGRFTISRDNAKNTVYLQMNSMKPDDTAVYYCNAVTLANKYNDYGYWGQGTQVTVSS | high polyreactivity
17 | QVQLVESGGGLVQAGGSLRLSCAASGRIFVVYAMGWYRQAPGKERELVASITWRGGSTYYADSVKGRFTISRDNAKNTVYLQMNSLKPEDTAVYYCAARYARYLLYDYWGQGTQVTVSS | low polyreactivity
18 | QVQLVESGGGLVQAGGSLRLSCAASGSLFGDYVMGWSRQAPGKERELVAAINRGGSTYYADSVKGRFTISRDNAKNTVYLQMNSLKPEDTAVYYGAAGYPSWYYGYPYDSWGQGTQVTVSS | low polyreactivity
19 | QVQLVESGGGLVQAGGSLRLSCAASGLTFYYYAMGWYRQAPGKERELVAAISYSGSRTYYADSVKGRFTISRDNAKNTVYLQMNSLKPEDTAVYYCAARLSDGGGYWGQGTQVTVSS | high polyreactivity
20 | QVQLVESGGGLVQAGGSLRLSCAASVSIFIANVMGWYRQAPGKERELVAAITRTSSTYYADSVKGRFTISRDNAKNTVYLQMNSLKPEDTAVYYCAKLYGVVGRWYRSSYGYWGQGTQVTVSS | high polyreactivity
21 | QVQLVESGGGLVQAGGSLRLSCAASGFTFVRYAMGWYRQAPGKERELVAAISSGGRTYYADSVKGRFTISRDNAKNTVYLQMNSLKPEDTAVYYCAADTKFGYGYWGQGTQVTVSS | high polyreactivity
22 | QVQLVESGGGLVQAGGSLRLSCAASGFTFSPNAMGWYRQAPGKERELVAAISKRGASTYYADSVKGRFTISRDNAKNTVYLQMNSLKPEDTAVYYCNVGASARKPYDYWGQGTQVTVSS | high polyreactivity

Row | Sequence | polyreactivity (PSR sort gate)
23 | QVQHVESGGGLVQAGGSLRLSSAASGRTFFRSAMGWYRQAPGKERELVAAISSRGGSTYYADSVKGRFTISRDNAKNTVYLHMNSLKPEDTAVYYCNAAAFINFILYDYWGQGTQVTVSA | high polyreactivity
24 | QVQLVESGGGLVQAGGSLRLCCAASGIIFQRNDMGWYRQAPGKERELVANIRDGGITYADSVKGRFTISRDNAKNTVYLQMNSLKPEDTAVYYCARDDTSPGYGDQSSIAAYYYWGQGTQVTVSS | low polyreactivity
25 | QVQLVESVGRLVQAGGSLRLSCGASGRIFKWYAMGWFRQARGNERELVAAITSRGSTYYADSVKGRFTISRDNAKNTVYLQMNSLKPEDTAVYYCNRYVVHRRDDYWGQGTQVTVSS | high polyreactivity
26 | QVQLVESGGGLVQAGGSLRLSCAASGSTFNYNAMGWYRQAPGKERELVATITTSGGSTYYADSVKGRFTISRDNAKNTVYLQMNSLKPEDTAVYYCAARYPWYRTIDRYDYWGQGTQVTVSS | low polyreactivity
27 | QVQLVESGGGLVQAGGSLRLSCAASGSIFSDNAMGWYRQAPGKERELVAAISWIGDSTDYADSVKGRFTISRDNAKNTVYLQMNSLKPEDTAVYYCAGDAKVVSPRYRANDIGMYYWGQGTQVTVSS | low polyreactivity
28 | QVQLVESGGGLVQAGGSLRLRGAASGNTIRYYAMGWYRQAPGKERELVAAINSRGGTTSYADSVKGRFTISRDNAKNTVYLQMNSLKPEDTAVYYCNKYIRYPFKRYGYWGQGTQVTVSS | high polyreactivity
29 | QLQLVESGGGLVQAGGSRRISCAASGRTFDSNAMGSYRHAPGKERELVAAIYADSVKGRFTISRENAKNTVSLQMNFLKPEDTAVYYCAAETYSGQTYLGEYDFWGQGTQVTVSS | low polyreactivity
30 | QVQLVESGGGLVQAGGSLRLSCAASGRTFWYYAMGWYREAPGKERELVAAITRGGRTNYADSVKGRFTISRDNAKNTVYLQMKSLKPEDTAVYYCAADYRYPAHSYGYWGQGTLVTVSS | high polyreactivity
31 | QVQLVESGGGLVQAGGSLRLSCAASGRIFLGNAMGWYRQAPWKESELVAAITNGGGSTSYADSVKGRFTISRDNAKNTVYLQMNSLKPEDTAVYYCARGYKKSVQRFEYRGQGTQVTVSS | high polyreactivity
32 | QVQLVESGGGLVQAGGSLRLSCAASGRTFASYDMGWYRQAPGKEREVVAVIRSGGSTKYADSVKGRFTISRDNAKNTVYLQMNSLKPEDTAVYYCARTYAKTYLSVYLFYYWGQGTQVTVSS | low polyreactivity
33 | QVQLVESGRGLVQAGGSLRLSCAASGSIFSGNAMGWYRQAPGKERELVAAISRSGGSTYYADSVKGRFTISRDNAKNTVYLQLYSLKPEDTAVYYCAAYRTHGPPRALRFDYWGQGTLVTVSS | high polyreactivity
34 | QVQLVESGGGLVQAGGSLRLSCAASGSTFQSYAMGWYRQAPGKERELVASITRTGGTTYYADSVKGRFTISRDNAKNTVYLQMNSLKPEDTAVYYCNADLGQPISLDDFDYWGQGTQVTVSS | low polyreactivity
35 | QVQLVESGGGLVQAGGSLRLSCAASGFIFGGYAMGWYRQAPGKERELVAAISSSGGSTYYADSVKGRFTISRDNAKNTVYLQMNSLKPEDTAVYYCAKVGWSRRYYYWGQGTQVTVSS | high polyreactivity
36 | QVQLVESGGGLVQAGGSLRLSCDASGSIFSKYVMGCYRQAPGKERELVASITSGGSTNYADSVKGRFTISRDNAKNTVYLQMTSQKPEDTAVYFCAARAINTWYRSGVDDWCQGTQVTVSS | low polyreactivity
37 | QVQLVESGGCLVQAGGSLRLSCAASGYTFSLNAMGWYRQAPGKERELVAAISYSGGSTYYADSVKGRFTISRDNAKNTVYLQMNSLKPEDTAVYYCAVRRPQYSYYWDFDYWGQGTQLTVSS | high polyreactivity
38 | EVQLVESGGGLVQAGGSLRLSCAASGRTFLVNAMGWSRPAPGKERELVAAISRSSGRTYYADSVKGRFTISRDNAKNTVYLQMNSLKPEDTAVYYCAARGYWGQGTQVTVSS | high polyreactivity
39 | QVQLVESGGGLVQEGGSLCLSCAASGINFYYYTMGWYRQATGKERELVDAISGDDTHYADSVKGRFTISGDNAKKTVYLLMNSLKADHTAVYYCAAGYIYWDTVQSVYEYGYCGQGTQVTVSS | low polyreactivity
40 | QVQLVESGGGLVQAGGILRLSCAASGRTFAYNTMGWYRQAPGKERQLVAAISSDGSTNYADSVKGRFTISRDNAKNTVYLQMNSLKPEDTAVYYCAKGEGTGTSDTQVYEHDYWGQGTQVTVSS | low polyreactivity
41 | QVQRVESGGGLVQAGGSLRLSCAASGSTFVNYVMGLYRQAPGKERELVAAISWSGGRTYYADSMKGRFTISRDNAKNTVYLQMNSLKPEDTAVYYCNAVYAGFLRVRYDYWGQGTQVTVSS | high polyreactivity
42 | QGQLVESGGGLVQAGGSLRLSCAASGSSFRGNALGGYRQAPGKERELVASISYSGGSTYYADSVKGRFTISRDSAKNTVYLQMNSLKPEDTAVYYCAADDSVAYPYSGYQYYRHIYDDWGQGTQVTVSS | low polyreactivity
43 | QVQLVESGGGLVQAGGSLRFSCAASRRTFANNAMGWYRQAPGKERELVAAISSGGNTYYADSVKGRFTISRDNAKNTVYLQMNSLKPEDTAVYYCAARYWIYRSEYDYWGQGTQVTVSS | high polyreactivity
